This data set deals with the molecule itself. The data set is described as follows: cryo-EM structure.

B1: F plasmid TraT protein complex (TraT-TS) (natural protein)
chain: CGAMSTAIKKRNLEVKTQMSETIWLEPASERTVFLQIKNTSDKDMSGLQGKIADAVKAKGYQVVTSPDKAYYWIQANVLKADKMDLRESQGWLNRGYEGAAVGAALGAGITGYNSNSAGATLGVGLAAGLVGMAADAMVEDVNYTMITDVQIAERTKATVTTDNVAALRQGTSGAKIQTSTETGNQHKYQTRVVSNANKVNLKFEEAKPVLEDQLAKSIANIL
modifications: lipid anchor on the N-terminal cysteine (density not resolved)
notes: also called TraTF; TraT exclusion protein complex; copies: 10
Regarding B1, the “stoichiometry N” value was 10.

For orientation: stoichiometry N means a count of units in the complex or per binding partner.

The record behind these values is PMC12658005 (Communications Biology, 2025).
